The supplement of paper PMC12042874
± gives the uncertainty stated by the source.

Experiment: amyloid nucleation score (Sup35N fusion, yeast selection) (log enrichment); library NNK3; higher = more nucleation; inactive = no reads after selection
In short: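 Peptides of 20 random codons fused to Sup35N were expressed in psi-negative yeast, induced 24 hours with 100 μM copper sulfate, then grown 7 days at 30°C on medium lacking adenine and uracil. Input and output plasmid inserts were Illumina-sequenced. Nucleation score is the DiMSum log enrichment of output over input reads, centred on the mode score of non-aggregating sequences, excluding sequences with under 100 input reads. Random libraries had three technical output replicates.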

Row | Substance | amyloid nucleation score
1 | GTYVKLLEVFTSFSWFRRFF | inactive
2 | TVVDLVIFG | inactive
3 | IEFGVCKVRNVVNDVRFRRG | inactive
4 | FVSPNLIVMVWVHWRSEINR | inactive
5 | RNCVSSGCCRRFSD | inactive
6 | WFLSLLSQLGYGQVFVDFIP | inactive
7 | VAFTLDGKARDKYRNGDHNK | inactive
8 | NIFRMRNQVIRSVLNVHVMT | inactive
9 | TMSLFTTSVCCWTKGAIRHS | inactive
10 | YARHSLDMRTSRDLTTLLGL | inactive
11 | MYQDPCIHSVCCWIM | 1.28 ± 0.096
12 | LSWTYGRMGLRRLGGTGCYG | inactive
13 | TPFSCEYNIMWESRGGDWSR | inactive
14 | AYMRHFF | inactive
15 | NWAGLHIVKYRLPPHTHLWH | inactive
16 | VNGCIRCCTPVSKYISVDLA | inactive
17 | TYMFMVAYNVSTRPRKLLNC | inactive
18 | NCQSTTTQGILCISLSYMEI | inactive
19 | SYGNCSSMHGPVKMLRICHQ | inactive
20 | YPMTQALVTSWVLHCTAMKM | inactive
21 | TNIYKARL | inactive
22 | LCKIRECHCNLYHRVYMGWN | inactive
23 | QYYFSYSINSRLITCALVQG | 0.214 ± 0.37

Row | Substance | amyloid nucleation score
24 | VQLGAD | inactive
25 | YSYRVRTSFVENRKCA | inactive
26 | GRDAVHHCMLRESQRKLREV | inactive
27 | WVQVCCVNTNGRSFQLEGSI | 1.36 ± 0.097
28 | VVCMDLCFLAGSSMSDLDGC | inactive
29 | NLHTTEIKFSPLLWKISSTW | 0.313 ± 0.34
30 | QDLSYRVGLFWDRSIVLNWY | inactive
31 | YAGSCK | inactive
32 | RMHMKLVGKG | inactive
33 | WNLHLLICEKSHTMEVMLLR | inactive
34 | SEMHRERDTMCKVLPDNDKN | inactive
35 | DRSDSMYPINMREESREFTF | inactive
36 | SLDSYDTDLKGVCCQVFCIK | 3.24 ± 0.062
37 | ETISFYLCLLYDVKLVNALM | -0.54 ± 0.68
38 | VVHNYEITWYHL | 1.99 ± 0.074
39 | ICSMYTTVSRNTEL | inactive
40 | FYRRNAI | inactive
41 | SKMRRSFCPIWFSRWSFLST | inactive
42 | YNVFEALLNRWH | inactive
43 | FFLIEQFYTYWMGGIMMIQR | inactive
44 | SRFLKCF | inactive
45 | QGLSGRRGYSDRY | inactive
46 | MLPVIHIGVVSPRTFEQSSC | inactive

Row | Substance | amyloid nucleation score
47 | QVVTSYGGSAVEDITAML | inactive
48 | GLDHSKGYLQLS | inactive
49 | YRTRESGLY | -0.425 ± 1.1
50 | MISWLNQKYHVLNQNFIYG | inactive
51 | DCKMRIEICDMGLCTEHRKC | inactive
52 | HINISFISYYRRRMYYNVCG | 1.62 ± 0.092
53 | TWWWDTKLVRRPCSRGWVTC | inactive
54 | HKRLMFDMYHPIWMFYCSAC | inactive
55 | YAVLNELVTRSCLYAVSFTI | inactive
56 | FSYSSRGVYYG | -0.649 ± 0.98
57 | THLVDYKLVL | inactive
58 | SWVYGSSDPSRVSSCLVGVL | inactive
59 | AHEQTQSDLPGVELPRWDR | inactive
60 | KANRFRVVMLGVDGVCAFQS | inactive
61 | IRGSSKTDSKRTWVK | -0.364 ± 0.7
62 | NPRTRFILNLPVFPSYHEHP | inactive
63 | GANKVSNRRVMSSDPTSQCL | inactive
64 | CWYLVLSRLLCKNSRLHSNR | inactive
65 | IKNMHRLDFR | -0.501 ± 1.9
66 | MSVSSCLTPGDGNESHWNSR | inactive
67 | SIKFYLRLMTSLKVKLY | inactive
68 | TASVRVRFPLSFTPCLEVHP | inactive
69 | ACMNSSSRSVMLLMCYYFSN | inactive

Row | Substance | amyloid nucleation score
70 | PDSMNFTPDNHHVRNGYNNF | inactive
71 | FSLDPTIVMSVIARDSMSML | inactive
72 | DIFVDN | inactive
73 | TMVYPKIPGGRTLAWDMTGR | inactive
74 | PLEGTALRHMVSMYYLSCWT | inactive
75 | HVSLNLDSQNCCMSECFA | inactive
76 | LGKKLDCGDSMRSVRPICRG | inactive
77 | LNKHSAYGTDLVYSRLKFVL | inactive
78 | VPKPD | inactive
79 | HSTLSLMHDSYRACSWKCNA | inactive
80 | TGYSYFYGWMVTYATQSKRV | inactive
81 | LLLYWRRTMVALRCTYFGLT | inactive
82 | NGLVCQKWRPYSI | inactive
83 | VIRRHWR | inactive
84 | TLSVLFSVSAAAFGVHRIQD | 1.09 ± 0.21
85 | SVALYVPLQSYSQQFLEVAT | inactive
86 | WGVSLLVFHVTKQVRNRFYY | inactive
87 | YYVIDILVW | inactive
88 | INVDWFSPFGVLKNSSK | inactive
89 | AIGDVTVGRIHFDMHCGLGR | -0.955 ± 1.2
90 | DSFRDRGCQQKIEIF | inactive
91 | CLSSSINMTMVYCCNSLMFG | 2.13 ± 0.069
92 | TMNAICLNPVS | inactive

Row | Substance | amyloid nucleation score
93 | FSSYTWNPL | inactive
94 | GDKISANACSMNFFDMFW | inactive
95 | KWRDIIYCIYSIMIDSCTSR | inactive
96 | FPLESG | inactive
97 | RDMPLMGVYKIPVDAFYSVS | inactive
98 | RPVTPC | inactive
99 | RCSRWNWCVVAG | inactive
100 | LISTNKRHTAWRYCRGIPLE | inactive
101 | DLVRITMIVYYVAASHMVAS | inactive
102 | NTNGMQDLSLCCRCYDTELR | inactive
103 | WQCNCGASICASHKKCANMN | 0.128 ± 0.3
104 | PLITVDY | -0.153 ± 0.7
105 | KPLCLFQARRYRW | inactive
106 | GCAKVKLI | -0.292 ± 0.75
107 | YIYNSLLYI | inactive
108 | AHREFLFRMTVWNITKGLIL | -0.481 ± 0.9
109 | RYDWLLGSVWVFLLA | inactive
110 | VLLLFWAPVNAGTVWYLWNR | inactive
111 | DKNSWLYSASEYIWFFNTES | inactive
112 | FDGNFGWARRVNAGDSLFMF | inactive
113 | GLVNCEHVWRIETKLVTPHL | -0.764 ± 0.76
114 | VFFETNVMGQEWYGGHVKR | inactive
115 | ETFVGLEVNWNSCNCFIVQE | 1.87 ± 0.076

Row | Substance | amyloid nucleation score
116 | HRLVGTNISSTR | inactive
117 | ILQTRKRVNVLNIVIWQIAF | 1.09 ± 0.18
118 | SSFFRMLVLIVMRCQDTSNR | inactive
119 | EVYLETCRGILFCALDTIFG | -0.264 ± 1
120 | YDNLTARESSYFIFFCFLVY | inactive
121 | YSYAQMSLMEQQMLIRT | inactive
122 | HEKSIRVESMAVLIRPVTRS | inactive
123 | RCDNKF | 1.2 ± 0.17
124 | PRGWWPMGFSCGYFVFALTP | inactive
125 | RWNDKWGVDVRSLIIIFVGS | inactive
126 | CVRVSPRSDYNQMMVRMGQW | inactive
127 | VSWVYRSGRFYDGVGVGYRT | inactive
128 | GMTEGYYLESVGGSKFDNVV | inactive
129 | FFSSFPFKIIEMLSFEGSFR | inactive
130 | KFKENMYLTYSCLHKVIMRF | inactive
131 | TMCCACVFLSSSGWEFNYGL | 2.35 ± 0.081
132 | FCKLQYTGQS | inactive
133 | TRVLSINRNTPANRLIGVGC | inactive
134 | FNWTN | inactive
135 | IPSIWMGISRK | inactive
136 | YWMLNAHRNW | inactive
137 | VMDIVHPSSDAVVGRA | -0.125 ± 0.53
138 | LVKNITPNAA | inactive

Row | Substance | amyloid nucleation score
139 | VFSFRTYNLYGEDNEQLLHW | inactive
140 | VQFFNDRSLVDSQIGRLLLP | inactive
141 | NYECNGWVGFVLTVPYGTIW | inactive
142 | YACRMKEFYGCILSRVRVWL | inactive
143 | STFSYSPVACWCFGGISQVG | -0.797 ± 2.5
144 | NFIQVMAIIGLFAVHRGCVT | 0.758 ± 0.14
145 | TGDSLLLAHLLWSMDIVNMN | inactive
146 | CVYYSRKG | 1.95 ± 0.073
147 | KRDIVFLCGDWVDSFTCSGG | 1.79 ± 0.075
148 | YMCSLLMIAKSMPGRG | 1.42 ± 0.14
149 | RKFTVSISRGNWSHAWTYSE | inactive
150 | SSNRGFIIMFEFLASWGFLA | inactive
151 | HVFNGY | inactive
152 | LLAMRRIDWCSTPVTLILCR | inactive
153 | LDLDVDNVSSDGKTWMGLV | inactive
154 | YGVSMVVENYL | inactive
155 | RVWHLYTMV | -1.11 ± 1.9
156 | ERLFRFENEDLVIFIYCSIL | inactive
157 | MMTIRSSMLAKGLVNALATV | inactive
158 | VTSGLERTMFSGNKRRIEVS | inactive
